# Test results: patent US20220168402A1, “PIP4Ks SUPPRESS INSULIN SIGNALING AND ENHANCE IMMUNE FUNCTION THROUGH A CATALYTIC-INDEPENDENT MECHANISM” (Cornell University, priority 2019, published 2022)
# T1: PIP5K1A (purified, in vitro kinase assay), Q99755
# T1 chain: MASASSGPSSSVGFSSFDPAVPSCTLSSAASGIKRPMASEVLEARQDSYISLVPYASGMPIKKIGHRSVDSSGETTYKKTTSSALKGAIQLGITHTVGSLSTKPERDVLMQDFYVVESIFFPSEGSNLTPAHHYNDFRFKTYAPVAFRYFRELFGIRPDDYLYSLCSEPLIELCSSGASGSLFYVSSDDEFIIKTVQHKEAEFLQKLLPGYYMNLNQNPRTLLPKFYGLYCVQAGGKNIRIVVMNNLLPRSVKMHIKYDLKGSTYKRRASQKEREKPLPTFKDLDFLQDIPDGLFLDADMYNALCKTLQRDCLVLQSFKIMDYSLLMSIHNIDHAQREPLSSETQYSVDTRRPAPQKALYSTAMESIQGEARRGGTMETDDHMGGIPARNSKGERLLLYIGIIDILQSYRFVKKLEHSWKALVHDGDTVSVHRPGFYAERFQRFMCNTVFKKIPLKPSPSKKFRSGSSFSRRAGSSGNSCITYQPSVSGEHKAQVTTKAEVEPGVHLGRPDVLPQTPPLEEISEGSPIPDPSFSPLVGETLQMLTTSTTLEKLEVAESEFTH
# Key:
# [1] = target: PIP5K1A (purified, in vitro kinase assay) (UniProt Q99755)
# [2] = target: T1, PIP5K1A (purified, in vitro kinase …)
# [3] = target: endogenous PIP5K1A (293T lysate) (UniProt Q99755 1-562, limits assumed); assay: GST pulldown from 293T lysates with bead-bound bait, western blot (FIG. 3J)
# Description: These lysates and purified protein were incubated together at 4 degrees for 1 hour before the beads were again pelleted, washed with IP buffer three times, eluted with 2M NaCl, and analyzed by SDS PAGE and western blot.
# [4] = target: T2, PIP5K1A (Homo sapiens, UniProt Q99755); assay: In vitro kinase assay: conversion of PI(4)P to radiolabeled PI(4,5)P2 by PIP5K1A with purified PIP4K proteins added; assay type: biochemical; conditions: for inhibition of PIP5K1A activity (PI(4)P to PI(4,5)P2): purified proteins, PI(4)P liposomes, 2-10 fold molar excess of PIP4K
# T2 construct: made in house; host or cells: E. coli
# Description: BL21 bacterial cells were transfected with pGEX vectors with PIP4K isoform coding sequence variants. Cells were grown in 1 L of TB at 37° at 200 rpm until 0.8 OD, at which point 500 uL of 1M IPTG was added. Cultures were shaken overnight at room temp for protein induction and pelleted at 5000 g for 15 minutes. Cells were lysed (50 mM Tris pH 7.5, 500 mM NaCl, 10 mM MgCl2, 10% glycerol, DTT, lysozyme, protein/phosphatase inhibitors), sonicated for 1 minute (output 4, continuous duty cycle) and spun down at 10,000 g for 1 hour. Supernatant was kept for further purification and cleavage according to manufacturer's protocol using glutathione sepharose beads.
# Cells were trypsinized and normalized for cell number. Cell pellets, or E. coli purified proteins were resuspended in HNE buffer (20 mM HEPES pH 7.4, 100 mM NaCl, 0.5 mM EGTA), and sonicated in the presence of 32P-γ-ATP, and liposomes (10 ug PS, 1 ug PI(4)P in 30 mM HEPES pH 7.4, 1 mM EGTA). Liposome lipids were purchased from Avanti. Reactions were stopped by addition of 50 uL of 4N HCL. To extract lipids, 100 μL of MeOH:CHCl3 (1:1) was added and samples were vortexed 2×30 seconds. Samples were spun down at top speed for 2 min and the organic phase containing phosphatidylinositol lipids (bottom) were separated using thin-layer chromatography (TLC) using 1-propanol: 2N acetic acid (65:35 v/v). TLC plates were prepared ahead of time by coating with 1% Potassium Oxalate. Phosphorylated lipids were visualized by autoradiography on a GE Typhoon FLA 7000 and quantified using ImageQuant TL software.
molecule,measurement,setting,value
GST-PIP4K2C 74DD to 74NN,"in vitro kinase assay: conversion of PI(4)P to radiolabeled PI(4,5)P2 by PIP5K1A (FIG. 4H)",[1],Mutating 74DD to be 74NN or mutating 91REN to be 91 EED within GST-PIP4K2C did not prevent this protein from inhibiting PIP5K1A
GST-PIP4K2C 91REN to 91EED,"in vitro kinase assay: conversion of PI(4)P to radiolabeled PI(4,5)P2 by PIP5K1A (FIG. 4H)",[1],Mutating 74DD to be 74NN or mutating 91REN to be 91 EED within GST-PIP4K2C did not prevent this protein from inhibiting PIP5K1A
PIP4K2C (purified) (protein) MASSSVPPATVSAATAGPGPGFGFASKTKKKHFVQQKVKVFRAADPLVGVFLWGVAHSINELSQVPPPVMLLPDDFKASSKIKVNNHLFHRENLPSHFKFKEYCPQVFRNLRDRFGIDDQDYLVSLTRNPPSESEGSDGRFLISYDRTLVIKEVSSEDIADMHSNLSNYHQYIVKCHGNTLLPQFLGMYRVSVDNEDSYMLVMRNMFSHRLPVHRKYDLKGSLVSREASDKEKVKELPTLKDMDFLNKNQKVYIGEEEKKIFLEKLKRDVEFLVQLKIMDYSLLLGIHDIIRGSEPEEEAPVREDESEVDGDCSLTGPPALVGSYGTSPEGIGGYIHSHRPLGPGEFESFIDVYAIRSAEGAPQKEVYFMGLIDILTQYDAKKKAAHAAKTVKHGAGAEISTVHPEQYAKRFLDFITNIFA,"in vitro kinase assay: conversion of PI(4)P to radiolabeled PI(4,5)P2 by PIP5K1A (FIG. 3K)",[2],"PIP5K1A, which is inhibited by PIP4K2C but not PIP4K2C^VD"
"GST-PIP4K2C^VD (enzyme, the text and the Quik-2CVD primer give EIF, which is used here; not shown: glutathione S-transferase (GST) tag from a pGEX vector) MASSSVPPATVSAATAGPGPGFGFASKTKKKHFVQQKVKVFRAADPLVGVFLWGVAHSINELSQVPPPEIFLPNNFKASSKIKVNNHLFHRENLPSHFKFKEYCPQVFRNLRDRFGIDDQDYLVSLTRNPPSESEGSDGRFLISYDRTLVIKEVSSEDIADMHSNLSNYHQYIVKCHGNTLLPQFLGMYRVSVDNEDSYMLVMRNMFSHRLPVHRKYDLKGSLVSREASDKEKVKELPTLKDMDFLNKNQKVYIGEEEKKIFLEKLKRDVEFLVQLKIMDYSLLLGIHDIIRGSEPEEEAPVREDESEVDGDCSLTGPPALVGSYGTSPEGIGGYIHSHRPLGPGEFESFIDVYAIRSAEGAPQKEVYFMGLIDILTQYDAKKKAAHAAKTVKHGAGAEISTVHPEQYAKRFLDFITNIFA",binding result,[3],no binding
same,"in vitro kinase assay: conversion of PI(4)P to radiolabeled PI(4,5)P2 by PIP5K1A (FIG. 3K)",[2],PIP4K2C^VD failed to inhibit PIP5K1A activity
PIP4K2B (purified) (protein) MSSNCTSTTAVAVAPLSASKTKTKKKHFVCQKVKLFRASEPILSVLMWGVNHTINELSNVPVPVMLMPDDFKAYSKIKVDNHLFNKENLPSRFKFKEYCPMVFRNLRERFGIDDQDYQNSVTRSAPINSDSQGRCGTRFLTTYDRRFVIKTVSSEDVAEMHNILKKYHQFIVECHGNTLLPQFLGMYRLTVDGVETYMVVTRNVFSHRLTVHRKYDLKGSTVAREASDKEKAKDLPTFKDNDFLNEGQKLHVGEESKKNFLEKLKRDVEFLAQLKIMDYSLLVGIHDVDRAEQEEMEVEERAEDEECENDGVGGNLLCSYGTPPDSPGNLLSFPRFFGPGEFDPSVDVYAMKSHESSPKKEVYFMAIIDILTPYDTKKKAAHAAKTVKHGAGAEISTVNPEQYSKRFNEFMSNILT,"inhibition of PIP5K1A activity (PI(4)P to PI(4,5)P2)",[4],inhibited
PIP4K2A (purified) (protein) MATPGNLGSSVLASKTKTKKKHFVAQKVKLFRASDPLLSVLMWGVNHSINELSHVQIPVMLMPDDFKAYSKIKVDNHLFNKENMPSHFKFKEYCPMVFRNLRERFGIDDQDFQNSLTRSAPLPNDSQARSGARFHTSYDKRYIIKTITSEDVAEMHNILKKYHQYIVECHGITLLPQFLGMYRLNVDGVEIYVIVTRNVFSHRLSVYRKYDLKGSTVAREASDKEKAKELPTLKDNDFINEGQKIYIDDNNKKVFLEKLKKDVEFLAQLKLMDYSLLVGIHDVERAEQEEVECEENDGEEEGESDGTHPVGTPPDSPGNTLNSSPPLAPGEFDPNIDVYGIKCHENSPRKEVYFMAIIDILTHYDAKKKAAHAAKTVKHGAGAEISTVNPEQYSKRFLDFIGHILT,inhibition of PIP5K1A activity in presence of detergent,"[4]; 0.1% Triton-X100, no PI(4)P liposomes",eliminated the ability of PIP4K2A to inhibit PIP5K1A
same,"inhibition of PIP5K1A activity (PI(4)P to PI(4,5)P2)",[4],inhibited
